Changes are numbered by the printed parent chain.
B1: SEQ ID NO 260 (designed binder)
chain: MLPAPKNLVVSRVTEDSARLSWTAPDAAFDSFNISYYEYFVHGEAIVLTVPGSERSYDLTGLKPGTEYYVIDGVKGGDPSEPLSAIFTT
notes: FN3 domain
B2: SEQ ID NO 221 (designed binder)
chain: MLPAPKNLVVSRVTEDSARLSWTAPDAAFDSFHISYQEVVAEGEAIYLRVPGSERSYDLTGLKPGTEYYVLIHGVKGGYESKPLDASFTT
notes: FN3 domain
B3: SEQ ID NO 232 (designed binder)
chain: MLPAPKNLVVSRVTEDSARLSWTAPDAAFDSFTIAYDETLNLGEAIVLTVPGSERSYDLTGLKPGTEYIVGIFGVKGGTHSWPLSAIFTT
notes: FN3 domain
B4: SEQ ID NO 292 (designed binder)
chain: MLPAPKNLVVSRVTEDSARLSWTAPDAAFDSFDIAYWELTPSGEAIELLVPGSERSYDLTGLKPGTEYRVDIIGVKGGFISEPLGATFTT
notes: FN3 domain
B5: SEQ ID NO 225 (designed binder)
chain: MLPAPKNLVVSRVTEDSARLSWTAPDAAFDSFKIEYFEYVGYGEAIVLTVPGSERSYDLTGLKPGTEYYVAIYGVKGGWYSRPLSAIFTT
notes: FN3 domain
B6: SEQ ID NO 299 (designed binder)
chain: B5 chain with K33L, F37W, Y39S, Y69W, A71G, W79Y
notes: FN3 domain
B7: SEQ ID NO 249 (designed binder)
chain: B5 chain with K33S, E35D, Y39S, Y42F, Y69D, A71Q, Y73T, W79P, Y80H, R82L
notes: FN3 domain
B8: SEQ ID NO 231 (designed binder)
chain: B5 chain with K33E, E35P, F37I, Y39T, G41A, Y42L, A71E, W79S, R82Y, F88S
notes: FN3 domain
B9: SEQ ID NO 277 (designed binder)
chain: B5 chain with K33W, E35N, F37Y, Y39G, V40I, Y42E, A71D, Y73S, W79S, R82L
notes: FN3 domain
B10: SEQ ID NO 253 (designed binder)
chain: B5 chain with K33T, F37W, Y39T, V40I, Y42G, A71G, Y80W
notes: FN3 domain
B11: SEQ ID NO 248 (designed binder)
chain: MGSLPAPKNLVVSRVTEDSARLSWTAPDAAFDSFAIPYAEPSPTGEAIVLTVPGSERSYDLTGLKPGTEYPVWIQGVKGGSPSAPLSAEFTT
notes: FN3 domain
B12: SEQ ID NO 227 (designed binder)
chain: MLPAPKNLVVSRVTEDSARLSWTAPDAAFDSFRIRYLEWWNIGEAIVLTVPGSERSYDLTGLKPGTEYHVDIWGVKGGYSSYPLSAIFTT
notes: FN3 domain
B13: SEQ ID NO 241 (designed binder)
chain: B12 chain with R33N, R35Y, L37Y, W40F, N41V, I42S, H69F, W73D, S80R, Y82R
notes: FN3 domain
B14: SEQ ID NO 242 (designed binder)
chain: B12 chain with R33P, R35K, N41S, I42W, H69R, D71P, W73S, Y79G, S80M, Y82G
notes: FN3 domain
B15: SEQ ID NO 224 (designed binder)
chain: MLLAPKNLVVSRVTEDSARLSWTAPDAAFDSFRYLEQGLYGEAIVLTVPGSERSYDLTGLKPGTEYWVEIIGVKGGEYSTPLSAIFTT
notes: FN3 domain
B16: SEQ ID NO 290 (designed binder)
chain: B15 chain with L3P, R33F, G38A, L39W, Y40G, I71T, E77Y, Y78A, T80S
notes: FN3 domain
B17: SEQ ID NO 291 (designed binder)
chain: MLPAPKNLVVSRVTEDSARLSWTAPDAAFDSFHIEYEEPETEGEAIYLHVPGSERSYDLTGLKPGTEYKVLIRGVKGGSYSIPLQAPFTT
notes: FN3 domain
B18: SEQ ID NO 230 (designed binder)
chain: MLPAPKNLVVSRVTEDSARLSWTAPDAAFDSFQIRYPKRWISGEAIVLTVPGSERSYDLTGLKPGTEYEVVIRGVKGGEYSWPLSAIFTT
notes: FN3 domain
B19: SEQ ID NO 274 (designed binder)
chain: MLPAPKNLVVSRVTEDSVRLSWTAPDAAFDSFAISYEEWWVHGEAIVLTVPGSERSYDLTGLKPGTEYSVVIPGVKGGLYSWTLSAISTT
notes: FN3 domain
B20: SEQ ID NO 247 (designed binder)
chain: MLPAPKNLVVSRVTEDSARLSWTAPDAAFDSFYIEWTYKGEAIVLTVPGSERSYDLTGLKPGTEYFVGIPGVKGGKSSYPLSAIFTT
notes: FN3 domain
B21: SEQ ID NO 273 (designed binder)
chain: MLPAPKNLVVSRVTEDSARLSWTAPDAAFDSFTIFKDGEAIVLTVPGSERSYDLTGLKPGTEYYVYIYGVKGGYPSKPLSAIFTT
notes: FN3 domain
B22: SEQ ID NO 281 (designed binder)
chain: MLPAPKNLVVSRVTEDSARLSWTAPDAAFDSFYIDYDEIHDWGEAIVLTVPGSERSYDLTGLKPGTEYAVQIGGVKGGSFSWTLSAIFTT
notes: FN3 domain
B23: SEQ ID NO 286 (designed binder)
chain: MLPAPKNLVVSRVTEDSARLSWTAPDAAFDSFNIYYPEFPVRGEAIVLTVPGSERSYDLTGLKPGTEYVVSIWGVKGGTQSWPLSAIFTT
notes: FN3 domain
B24: SEQ ID NO 294 (designed binder)
chain: MLPAPKNLVVSRVTEDSARLSWTAPDAAFDSFSIIYSEWNVTGEAIVLTVPGSERSYDLTGLKPGTEYDVWIEGVKGGGMSKPLSAISTT
notes: FN3 domain
B25: SEQ ID NO 234 (designed binder)
chain: MLPAPKNLVVSRVTEDSARLSWTAPDAAFDSFYITYWETWDYGEAIVLTVPGSERSYDLTGLKPGTEYKVPITGVKGGGPSVPLSAIFTT
notes: FN3 domain
B26: SEQ ID NO 239 (designed binder)
chain: MLPAPKNLVVSRVTEDSARLSWTAPDAAFDSFAITYYEGRWRGEAIVLTVPGSERSYDLTGLKPGTEYGVPIRGVKGGTGSLPLSAIFTT
notes: FN3 domain
B27: SEQ ID NO 308 (designed binder)
chain: MLPAPKNLVVSEVTEDSARLSWQGVARAFDSFLITYREQIFAGEVIVLTVPGSERSYDLTGLKPGTEYPVWIQGVKGGSPSAPLSAISTT
notes: FN3 domain
B28: SEQ ID NO 309 (designed binder)
chain: MLPAPKNLVVSRVTEDSARLSWTAPDAAFDSFIIDYLELDQEGEAIVLTVPGSERSYDLTGLKPGTEYAVYIFGVKGGYPSTPLSAIFTT
notes: FN3 domain
B29: SEQ ID NO 301 (designed binder)
chain: MLPAPKNLVVSRVTEDSARLSWTAPDAAFDSFEIEYDEPYRGGEAIVLTVPGSERSYDLTSLKPGTEYPVSIGGVKGGITSDPLSAIFTT
notes: FN3 domain
B30: SEQ ID NO 83 (designed binder)
chain: MLPAPKNLVVSRVTEDSARLSWTAPDAAFDSFYIYYYESSGTGEAIVLTVPGSERSYDLTGLKPGTEYFVDIGGVKGGSYSLPLSAIFTT
notes: FN3 domain
B31: SEQ ID NO 229 (designed binder)
chain: MLPAPKNLVVSRVTEDSARLSWTAPDAAFDSFSIHYDEDWRRGEAIVLTVPGSERSYDLTGLKPGTEYLVEIPGVKGGKASYPLSAIFTT
notes: FN3 domain
B32: SEQ ID NO 269 (designed binder)
chain: MLPAPKNLVVSRVTEDSARLSWTAPDAAFDSFHINYAEVYTKGEAILLTVPGSERSYDLTGLKPGTEYEVYIPGVKGGPFSRPLNAQFTT
notes: FN3 domain
B33: SEQ ID NO 244 (designed binder)
chain: MLPAPKNLVVSRVTEDSARLSWTAPDAAFDSFHIDYSEFHLRGEAIVLTVPGSERSYDLTGLKPGTEYLGIFGVKGGEQSGPLSAIFTT
notes: FN3 domain
B34: SEQ ID NO 297 (designed binder)
chain: MLPAPKNLVVSRVTEDSARLSWTAPDAAFDSFLIPYAETSPSGEAITLFVPGSERSYDLTGLKPGTEYNVVIQGVKGGRPSNPLVAASTT
notes: FN3 domain
B35: SEQ ID NO 266 (designed binder)
chain: MLPAPKNLVVSRVTEDSARLSWTAPDAAFDSFMIRYQEGTRWGEAIVLTVPGSERSYDLTGLKPGTEYIVMIAGVKGGQISLPLSAIFTT
notes: FN3 domain
B36: SEQ ID NO 270 (designed binder)
chain: B35 chain with M33L, G39W, T40Q, I69T, M71H, Q79M, I80L
notes: FN3 domain

What follows are binders tested against T1, recombinant biotinylated CD71 extracellular domain (Sino Biologics) with an N-terminal 6His tag (human, UniProt P02786 89-760, biotinylated (sites not given)) (assay: screening ELISA, ratio).
T1 construct: extracellular domain; also called hCD71; huCD71
T1 sequence (P02786 other isoform, or with tags, fused parts or gaps): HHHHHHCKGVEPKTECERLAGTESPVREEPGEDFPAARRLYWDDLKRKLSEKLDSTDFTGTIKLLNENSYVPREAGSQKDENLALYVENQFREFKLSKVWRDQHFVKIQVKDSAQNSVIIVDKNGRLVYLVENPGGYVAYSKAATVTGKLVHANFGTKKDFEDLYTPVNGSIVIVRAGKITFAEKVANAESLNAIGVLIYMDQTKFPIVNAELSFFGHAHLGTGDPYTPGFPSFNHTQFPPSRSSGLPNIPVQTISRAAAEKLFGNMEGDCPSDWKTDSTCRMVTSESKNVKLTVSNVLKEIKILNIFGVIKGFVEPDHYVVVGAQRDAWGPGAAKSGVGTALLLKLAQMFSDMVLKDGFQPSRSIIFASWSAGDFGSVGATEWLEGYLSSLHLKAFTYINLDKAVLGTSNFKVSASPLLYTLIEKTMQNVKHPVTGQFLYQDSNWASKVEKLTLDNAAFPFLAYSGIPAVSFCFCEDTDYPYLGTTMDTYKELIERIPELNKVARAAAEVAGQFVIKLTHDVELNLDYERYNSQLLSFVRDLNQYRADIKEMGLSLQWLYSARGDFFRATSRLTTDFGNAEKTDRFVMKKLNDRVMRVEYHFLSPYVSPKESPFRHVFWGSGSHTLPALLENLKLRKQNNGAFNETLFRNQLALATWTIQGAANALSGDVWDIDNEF

| hCD71:HSA | Binder |
| --- | --- |
| 90 | B1 |
| 537 | B2 |
| 629 | B3 |
| 296 | B4 |
| 210 | B5 |
| 1940 | B6 |
| 148 | B7 |
| 86 | B8 |
| 598 | B9 |
| 1140 | B10 |
| 55 | B11 |
| 1680 | B12 |
| 1230 | B13 |
| 178 | B14 |
| 122 | B15 |
| 237 | B16 |
| 1780 | B17 |
| 1050 | B18 |

| hCD71:HSA | Binder |
| --- | --- |
| 44 | B19 |
| 17 | B20 |
| 508 | B21 |
| 48 | B22 |
| 118 | B23 |
| 174 | B24 |
| 94 | B25 |
| 83 | B26 |
| 50 | B27 |
| 1100 | B28 |
| 55 | B29 |
| 1480 | B30 |
| 154 | B31 |
| 166 | B32 |
| 330 | B33 |
| 49 | B34 |
| 337 | B35 |
| 754 | B36 |

These binders were tested against T1, recombinant biotinylated CD71 … (assay: screening ELISA).

| hCD71 | Binder |
| --- | --- |
| 1.3e+06 | B1 |
| 1.96e+06 | B2 |
| 1.7e+06 | B3 |
| 2.62e+06 | B4 |
| 2.96e+06 | B5 |
| 4.27e+06 | B6 |
| 1.05e+06 | B7 |
| 2.27e+06 | B8 |
| 3.11e+06 | B9 |
| 2.8e+06 | B10 |
| 832000 | B11 |
| 3.85e+06 | B12 |
| 2.7e+06 | B13 |
| 872000 | B14 |
| 2.02e+06 | B15 |
| 2.81e+06 | B16 |
| 3.83e+06 | B17 |
| 2e+06 | B18 |

| hCD71 | Binder |
| --- | --- |
| 522000 | B19 |
| 916000 | B20 |
| 4.65e+06 | B21 |
| 1.07e+06 | B22 |
| 1.27e+06 | B23 |
| 1.44e+06 | B24 |
| 680000 | B25 |
| 419000 | B26 |
| 609000 | B27 |
| 3.14e+06 | B28 |
| 660000 | B29 |
| 1.93e+06 | B30 |
| 570000 | B31 |
| 690000 | B32 |
| 545000 | B33 |
| 2.59e+06 | B34 |
| 894000 | B35 |
| 1.81e+06 | B36 |

Source: patent US20210145976A1 (ARO BIOTHERAPEUTICS, published 2021)
